T1: CalR3 (Streptomyces chartreusis NRRL 3882) (UniProt F8QZR9)
T1 sequence: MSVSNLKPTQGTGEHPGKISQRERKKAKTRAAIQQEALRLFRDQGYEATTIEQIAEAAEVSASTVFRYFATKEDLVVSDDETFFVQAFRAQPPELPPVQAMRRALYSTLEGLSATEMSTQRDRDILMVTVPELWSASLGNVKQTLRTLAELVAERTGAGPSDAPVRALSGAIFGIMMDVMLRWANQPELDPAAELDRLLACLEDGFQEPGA

T2: CalR3 (Streptomyces chartreusis NRRL 3882, UniProt F8QZR9 1-211)
T2 sequence: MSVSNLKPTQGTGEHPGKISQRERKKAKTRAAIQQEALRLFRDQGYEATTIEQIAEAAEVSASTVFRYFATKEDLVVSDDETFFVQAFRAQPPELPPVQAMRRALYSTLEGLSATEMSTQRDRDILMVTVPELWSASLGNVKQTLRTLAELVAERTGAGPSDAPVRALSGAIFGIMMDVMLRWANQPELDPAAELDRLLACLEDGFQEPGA


Experiments:
[1] = biological target: T1, CalR3 (Streptomyces chartreusis NRRL 3882); experiment: EMSA; conditions: EMSA: 20 mM Tris-Cl pH 8.0, 100 mM KCl, 10 mM DTT, 37 C, 30 min, 20 ul, footprinting: 25 C, 500 ng probe in 40 ul
[2] = biological target: T2, CalR3; experiment: EMSA; 1.5 uM probe, 0.8 uM CalR3; two shifted bands; EMSA: 20 mM Tris-Cl pH 8.0, 100 mM KCl, 10 mM DTT, 37 C, 30 min, 20 ul; footprinting: 25 C, 30 min, 500 ng probe in 40 ul; conditions: protein: recombinant; tags: N-terminal His6 (pET28a); chain copies: 2
[3] = biological target: T2, CalR3; experiment: EMSA; 1.5 uM probe, 0.8 uM CalR3; EMSA: 20 mM Tris-Cl pH 8.0, 100 mM KCl, 10 mM DTT, 37 C, 30 min, 20 ul; footprinting: 25 C, 30 min, 500 ng probe in 40 ul; conditions: protein: recombinant; tags: N-terminal His6 (pET28a); chain copies: 2

| Molecule | binding [1] | binding result [3] | also measured |
| --- | --- | --- | --- |
| CCAGCCGGTAAAGAGCGAGCCTCATGACAGGCAACCTTCTTTTAGGAGTCGACTTTCAATTGATAGCCTACTAGCACTTTGAGGAGATGAGAACTCCTCCTCGCTGCCACC (double strand) [T-R3L] | binds | – | – |
| TCCCTTGCGTCGGTTTCAGGTTGGACACGCTCATGCTCCACATTCTCCAGGCTCTCCGGCGGCCGGCCGGTCACGGCTGTGCCGCGCCCGGCCGCGTGCGGCGGTGGCAGCGAGGAGGAG (double strand) [T-R3R] | no binding | – | – |
| TGACAGGCAACCTTCTTTTAGGAGTCGACTTTCAATTGATAGCCTACTAGCACTTTGAGGAGATGAGAACTCCTCCTCGCTGCCACCGCCGCACGCGGCCGGGCGCGGCACAGCCGTGACCGGCCGGCCGCCGGAGAGCCTGGAGAATGTGGAGCA (double strand) [T-R3 (calT-calR3 intergenic)] | binds | – | – |
| m0 (dsDNA) DNA 1: AAGAGCGAGCCTCATGACAGGCAACCTTCTTTTAGGAGTCGACTTTCAATTGATAGCCTACTAGCACTTTGAGGAGATGA DNA 2: TCATCTCCTCAAAGTGCTAGTAGGCTATCAATTGAAAGTCGACTCCTAAAAGAAGGTTGCCTGTCATGAGGCTCGCTCTT | – | – | binding result [2]: binds |
| m1 (site II palindrome mutated) (dsDNA) DNA 1: AAGAGCGAGCCTCATGACAGGCAACCTTCTTTTAGGAGTCGAGAATTCTAGATATCCCTACTAGCACTTTGAGGAGATGA DNA 2: TCATCTCCTCAAAGTGCTAGTAGGGATATCTAGAATTCTCGACTCCTAAAAGAAGGTTGCCTGTCATGAGGCTCGCTCTT | – | no binding | – |
| m1&2 (sites I and II mutated) (dsDNA) DNA 1: AAGAGCGAGCCTCAACTGAGGCAACCTTCTTTTAGGAGTCGAGAATTCTAGATATCCCTACTAGCACTTTGAGGAGATGA DNA 2: TCATCTCCTCAAAGTGCTAGTAGGGATATCTAGAATTCTCGACTCCTAAAAGAAGGTTGCCTCAGTTGAGGCTCGCTCTT | – | no binding | – |

— paper PMC5712553, “A Novel TetR Family Transcriptional Regulator, CalR3, Negatively Controls Calcimycin Biosynthesis in Streptomyces chartreusis NRRL 3882”
